“Also recorded” adds a separate entry of the source.
Assays:
[1] = tested on: HUVEC (human umbilical vein endothelial cells); experiment: HUVEC culture on bFGF loaded peptide matrix; format: cell-based; details: Day 3; bFGF loaded matrix compared to negative and positive control; FIG. 21; listed as RAD-2P
Description: (§1) The effect of protein retention and delivery using the self-assembling peptide were studied (Table 11). bFGF was used as a model protein. The retention of bFGF in different peptide matrix in different charge condition was measured by ELISA after washing by PBS. After washing out unbound bFGF, the effect of protein retention to self-assembling peptide matrix were evaluated the using cell culturing of HUVEC (human umbilical vein endothelial cells).
The peptide solutions provided in Table 12 were loaded in the culture inserts (10 mm diameter, Millicell-CM, Millipore) and gels were formed using PBS. After gelation, bFGF solution in PBS was added inside and outside and plated for overnight. bFGF was loaded at 175 ng/insert. After loading bFGF, the PBS inside and outside the inserts were exchanged three times (2 hours, 9 hours and 12 hours) to remove unbound bFGF (Washing). […]
Cell culturing using cell culture medium (EGM-2-MV) was used without attached growth factor on peptide matrix as negative control. […] The bFGF concentration in washing buffer (PBS) and cell culture medium (EGM-2-MV) was measured using ELISA. […] Growth factor retention rate was calculated by accumulating the amount of measured bFGF. […]

[2] = tested on: HUVEC (human umbilical vein endothelial cells); experiment: HUVEC cultured 2-dimensionally on hydrogels: cell attachment and morphology; format: cell-based; parameters: key to Capillary like morphology: weak: +; medium: ++; strong: +++; very strong: ++++; details: HUVEC cultured on hydrogels
Description: The effect of functional modified peptide matrix to HUVEC (human umbilical vein endothelial cells) was evaluated by culturing cells 2-dimensionally on the gel.
The peptide solutions shown in Table 19 were loaded in the culture inserts (10 mm diameter, Millicell-CM, Millipore) and gels were formed using cell culture medium (EGM-2-MV, Camblex). Collagen-1 and Matrigel were used as control matrices. HUVEC (human umbilical vein endothelial cells) were plated at 8×10^4 cells on the inserts and cultured up to 7 Days.

[3] = Isoelectric plot and rheological data when 0.1 N NaOH is added (pH of gel formation); format: physicochemical; details: 1% solution, 0.1 N NaOH solution added
Text: At the point of pH 3.6, the viscous solution become gel and has a higher G′ (stiffness), G″ (viscosity) value. When the pH is increased, the gel breaks into small pieces and it becomes a solution with precipitated peptides. At lower pH, the peptide forms fibers and the fibers make the solution viscous. When the pH becomes higher, and approaches the pI value, the peptide fibers lose their charge and aggregate to form gel. The same gel formation happens when the peptide charge is screened by salts in a salt-containing solution (e.g., a solution containing a gellation agent or an iso-osmotic solute). Once the gel is formed, the fiber structure is broken into pieces to form a precipitate particle.
(§2) A comparison of the pH dependent property of 1% Ac(RADA)4GGFHRRIKA CONH2 (SEQ ID NO. 6) solution (Code: FHR), self assembling peptide sequence was compared with the heparin-binding motif. FIG. 12 depicts the isoelectric plot and corresponding rheological data when 0.1 N NaOH solution is added to FHR solution to adjust pH. The net charge of the peptide molecule is kept ≧2 when pH<10. Until at point of pH 5.7, the solution keeps viscous state. This movement of pH point where the peptide solution become gel is controlled by the charge induced by the additional motif to the self-assembling peptide. The induced charge prevents the peptide to aggregate to form the gel. Thus, the cell and the peptide solution can be mixed near neutral pH. After complete mixing, the gel formation can be made by adding salt containing solution (e.g., a solution containing a gellation agent or an iso-osmotic solute).
FIG. 18 depicts the isoelectric plot and Rheological data of PFS 1% solution when 0.1 N NaOH solution is added. 1% Ac(RADA)4GGSKPPGTSS-CONH2 solution (Code: SKP, peptide sequence: SEQ ID NO. 7) is a hydrogel composed of peptides with a self-assembling sequence and positively-charged functional motif. Although the pI value of the peptide is 9.74 and it keeps positive charge at near pH 7 range, the gel is formed at the point of pH 4.5. […]

bFGF = bFGF (Homo sapiens, UniProt P09038); experiment: bFGF retention in peptide matrix (ELISA); details: bFGF 175 ng/insert loaded after gelation; during PBS washing and culturing; FIG. 19
Description: as §1
The peptide solutions provided in Table 12 were loaded in the culture inserts (10 mm diameter, Millicell-CM, Millipore) and gels were formed using PBS. After gelation, bFGF solution in PBS was added inside and outside and plated for overnight. bFGF was loaded at 175 ng/insert. After loading bFGF, the PBS inside and outside the inserts were exchanged three times (2 hours, 9 hours and 12 hours) to remove unbound bFGF (Washing). After the washing, the PBS was exchanged to the cell culture medium (EGM-2-MV, Camblex) without attached growth factor (bFGF, VEGF and EGF) and placed more than a day (such that the fluid contained in the gel is exchanged from PBS to cell culture medium), then HUVEC (human umbilical vein endothelial cells) were plated at 7.5×10^4 cells on the inserts and cultured for three days.
Cell culturing using cell culture medium (EGM-2-MV) was used without attached growth factor on peptide matrix as negative control. Cell culturing using cell culture medium (EGM-2-MV) was used with attached growth factor on peptide matrix without loading growth factor as positive control. The bFGF concentration in washing buffer (PBS) and cell culture medium (EGM-2-MV) was measured using ELISA. The washing buffer and cell culture medium were exchanged at each measurement period (2 hours, 9 hours and 12 hours for washing, and at the cell seeding (D0), Day 1 (D 1), Day 2 (D2) and Day 3 (D3)). Growth factor retention rate was calculated by accumulating the amount of measured bFGF.

[4] = pI and charge of the self-assembling peptide; format: physicochemical
Description: as §2
FIG. 18 depicts the isoelectric plot and Rheological data of PFS 1% solution when 0.1 N NaOH solution is added. 1% Ac(RADA)4GGSKPPGTSS-CONH2 solution (Code: SKP, peptide sequence: SEQ ID NO. 7) is a hydrogel composed of peptides with a self-assembling sequence and positively-charged functional motif. Although the pI value of the peptide is 9.74 and it keeps positive charge at near pH 7 range, the gel is formed at the point of pH 4.5. This is because the charge of the molecule around pH 7 range is +1 and smaller than the charge of Ac(RADA)4GGFHRRIKA CONH2 (FHR) (bigger than 3). The charge of the whole peptide should be larger than 2 when the cell is mixed. This pH should be somewhere in 6-8 in order to minimize the damage to the cells. As this sequence is heparin-binding motif, the fiber can attach to the heparin molecule which is abundant at cell surface. This heparin-binding motif provides a specific anchor to the cell. As described in Example 1, this binding synergistically works with the other binding motif (e.g., RGD) to induce biological stimuli for cell proliferation and differentiation. This effect is not limited to the sequences previously describe, but the other motifs, including -XBBXBX- and -XBBBXXBX- sequences. […]

Chain of bFGF (P09038 143-288, species assumed): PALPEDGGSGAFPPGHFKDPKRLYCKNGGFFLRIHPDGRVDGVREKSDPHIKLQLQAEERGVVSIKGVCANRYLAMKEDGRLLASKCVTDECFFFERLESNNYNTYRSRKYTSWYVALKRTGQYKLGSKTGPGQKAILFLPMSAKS

For Ac(RADA)4-CONH2, the “cell attachment and cell spread” value [1] was “superior; also recorded: dominant effect”, the Cell attachment [2] was “+ (+: Weak(<20%))” and the “pH at which the viscous peptide solution becomes gel” value [3] was 3.6. The “bFGF (growth factor) retention rate” value (bFGF) was “high in the order of KFQ-2P, FHR-2P, RAD-2P then DGR-2P”, the charge [4] was “neutral” and the pI [4] was 6.1.
For “Ac(RADA)4GGFHRRIKA-CONH2 (Ac-RADARADARADARADAGGFHRRIKA-NH2) [FHR = 1% solution; FHR-2P = 2% solution]”, the Capillary like morphology [2] was “+”, the Cell attachment [2] was “++ (++: 20-50%)” and the “pH at which the viscous peptide solution becomes gel” value [3] was 5.7. The “bFGF (growth factor) retention rate” value (bFGF) was “high in the order of KFQ-2P, FHR-2P, RAD-2P then DGR-2P”, the charge [4] was “positively charged” and the pI [4] was 11.32,. For the same substance, the “charge of the molecule around pH 7 range” value ([4]; around pH 7) was greater than 3 and the “net charge of the peptide molecule” value ([4]; when pH<10) was no less than 2.
